According to paper PMC12272874, “The common homocystinuria-associated P1173L variant of human methionine synthase impairs reductive methylation” (The Journal of Biological Chemistry, 2025):

Columns and labels:
[1] = biological target: T1, Human methionine synthase (MTR), wild-type, full-length recombinant (human, UniProt Q99707 1-1265); test: native gel or EMSA; 15 μM cob(II)alamin-bound wild-type or P1173L MTR mixed with equimolar MTRR in Buffer C (100 mM HEPES, pH 7.4, 150 mM KCl, 10% glycerol), room temperature 5 min; 4–15% gradient gel, 4 °C; settings: both partners purified
T1 construct: Methionine synthase (MTR), human, full length, 140.5 kDa; codon-optimised synthetic gene in pET-28 between BamH1 and Xho1, thrombin cleavage site at the N-terminus; Monomer fraction of the size exclusion column was used; Loaded with cob(II)alamin (native gel, stopped-flow, EPR) or MeCbl (native gel with substrates); also called wild-type MTR; WT; source: E. coli BL21 (DE3), co-expressed with …
T1 sequence (Q99707 whole entry): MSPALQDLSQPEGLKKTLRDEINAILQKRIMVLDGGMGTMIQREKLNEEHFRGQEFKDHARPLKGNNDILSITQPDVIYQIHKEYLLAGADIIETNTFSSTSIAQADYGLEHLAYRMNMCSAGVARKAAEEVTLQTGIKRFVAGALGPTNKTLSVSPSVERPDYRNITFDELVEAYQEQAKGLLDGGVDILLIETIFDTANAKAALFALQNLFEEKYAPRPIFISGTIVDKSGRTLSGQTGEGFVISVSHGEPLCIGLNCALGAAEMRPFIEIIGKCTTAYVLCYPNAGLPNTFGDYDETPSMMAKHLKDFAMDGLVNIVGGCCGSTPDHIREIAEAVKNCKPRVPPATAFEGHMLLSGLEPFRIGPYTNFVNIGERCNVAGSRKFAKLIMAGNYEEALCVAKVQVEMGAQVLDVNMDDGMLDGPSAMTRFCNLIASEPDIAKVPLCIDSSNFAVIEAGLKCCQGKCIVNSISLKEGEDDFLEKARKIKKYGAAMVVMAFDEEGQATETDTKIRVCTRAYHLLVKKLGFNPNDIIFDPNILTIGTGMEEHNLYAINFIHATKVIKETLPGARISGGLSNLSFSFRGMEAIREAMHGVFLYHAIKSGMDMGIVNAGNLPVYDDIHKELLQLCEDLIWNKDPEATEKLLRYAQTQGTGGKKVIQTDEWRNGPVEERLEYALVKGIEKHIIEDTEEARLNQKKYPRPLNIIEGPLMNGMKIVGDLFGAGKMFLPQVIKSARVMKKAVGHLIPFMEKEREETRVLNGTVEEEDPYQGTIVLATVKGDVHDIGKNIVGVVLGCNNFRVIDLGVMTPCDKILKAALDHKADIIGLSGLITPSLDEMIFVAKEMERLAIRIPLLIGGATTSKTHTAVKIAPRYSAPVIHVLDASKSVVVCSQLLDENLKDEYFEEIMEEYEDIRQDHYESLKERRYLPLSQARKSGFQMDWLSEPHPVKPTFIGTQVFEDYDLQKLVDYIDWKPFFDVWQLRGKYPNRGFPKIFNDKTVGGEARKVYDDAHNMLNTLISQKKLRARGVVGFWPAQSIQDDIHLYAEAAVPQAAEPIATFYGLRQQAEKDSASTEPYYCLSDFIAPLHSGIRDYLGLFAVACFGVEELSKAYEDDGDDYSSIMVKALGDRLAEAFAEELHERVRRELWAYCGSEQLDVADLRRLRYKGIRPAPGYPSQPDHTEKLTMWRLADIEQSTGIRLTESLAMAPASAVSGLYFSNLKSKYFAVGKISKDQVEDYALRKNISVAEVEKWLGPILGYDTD

[2] = biological target: T2, P1173L variant of human methionine synthase (MTR), full-length recombinant (human, UniProt Q99707 1-1265, P1173L); test: as above; settings: both partners purified
T2 construct: Methionine synthase (MTR), human, full length, clinical missense variant P1173L made from the wild-type pET28-thrombin-MTR construct; Homocystinuria-associated variant that occurs in patients; Same expression and purification as the wild type; Loaded with cob(II)alamin or MeCbl; also called P1173L MTR; P→L; source: E. coli BL21 (DE3), co-expressed with GST-tagged ΔNMMADHC, purified (Ni-NTA, size …)
T2 sequence (Q99707 whole entry P1173L): as the sequence (Q99707 whole entry) above, with P1173L counted along it

binding result [1]: binds | binding result [2]: binds
B1: Human methionine synthase reductase (MTRR), full-length recombinant (enzyme, UniProt Q9UBK8-2 1-698, looked up)
chain: MRRFLLLYATQQGQAKAIAEEICEQAVVHGFSADLHCISESDKYDLKTETAPLVVVVSTTGTGDPPDTARKFVKEIQNQTLPVDFFAHLRYGLLGLGDSEYTYFCNGGKIIDKRLQELGARHFYDTGHADDCVGLELVVEPWIAGLWPALRKHFRSSRGQEEISGALPVASPASSRTDLVKSELLHIESQVELLRFDDSGRKDSEVLKQNAVNSNQSNVVIEDFESSLTRSVPPLSQASLNIPGLPPEYLQVHLQESLGQEESQVSVTSADPVFQVPISKAVQLTTNDAIKTTLLVELDISNTDFSYQPGDAFSVICPNSDSEVQSLLQRLQLEDKREHCVLLKIKADTKKKGATLPQHIPAGCSLQFIFTWCLEIRAIPKKAFLRALVDYTSDSAEKRRLQELCSKQGAADYSRFVRDACACLLDLLLAFPSCQPPLSLLLEHLPKLQPRPYSCASSSLFHPGKLHFVFNIVEFLSTATTEVLRKGVCTGWLALLVASVLQPNIHASHEDSGKALAPKISISPRTTNSFHLPDDPSIPIIMVGPGTGIAPFIGFLQHREKLQEQHPDGNFGAMWLFFGCRHKDRDYLFRKELRHFLKHGILTHLKVSFSRDAPVGEEEAPAKYVQDNIQLHGQQVARILLQENGHIYVCGDAKNMAKDVHDALVQIISKEVGVEKLEAMKTLATLKEEKRYLQDIWS
notes: Methionine synthase reductase (MTRR), human, full length; purified by the same protocol as ΔCMTRR; source: E. coli BL21(DE3), purified (Glutathione Sepharose 4B, thrombin cleavage, size exclusion chromatography); not shown: GST, N-terminal, cleaved
